According to patent US20260256741A1, “ANTICANCER MALEIMIDE DERIVATIVES FOR USE WITH IMMUNE CHECKPOINT BLOCKADE” (BROWN UNIVERSITY, priority 2022, published 2026):

Key:
HCT-116 CRC cells = test: Western blot analysis of HCT-116 CRC cells; type: cell-based, human; conditions: 250 ng/mL IFN-γ
Protocol: (§1) Recombinant Human TNF-α (Cat #300-01A, PeproTech, Rocky Hill, NJ, USA) and Recombinant Human IFN-γ (Cat #300-02, Peprotech, Rocky Hill, NJ, USA) were purchased for use in western blot analysis while rhTRAIL was generated in-house. Kim et al., J Biol Chem., 279(38):40044-52 (2004).
(§2) Cells were plated in a 6-well plate and incubated overnight before the spent media was replaced with drugged media. Drug treatment lasted for indicated durations. Protein was extracted using radioimmunoprecipitation (RIPA) assay buffer (Cat #R0278, Sigma-Aldrich, St. Louis, MO) containing cOmplete™, Mini, EDTA-free Protease Inhibitor Cocktail (Cat #4693159001, Roche, Basel, Switzerland) from sub-confluent cells. Denaturing sample buffer was added, samples were boiled at 95 degrees for 10 minutes, and an equal amount of protein lysate was electrophoresed through NuPAGE™ 4 to 12%, Bis-Tris, 1.5 mm, Mini Protein Gels (Invitrogen, Waltham, MA) then transferred to PVDF membranes. The PVDF membrane was blocked with 5% non-fat milk (Sigma-Aldrich, St. Louis, MO) in 1×TTBS. Primary antibodies were incubated with the transferred PVDF membrane in blocking buffer at 4° C. overnight. Secondary antibodies used included Goat anti-Rabbit IgG (H+L) Secondary Antibody, HRP (Cat #31460, Invitrogen, Waltham, MA), and Goat anti-Mouse IgG (H+L) Secondary Antibody, HRP (Cat #31430, Invitrogen, Waltham, MA). Signal was detected using Pierce™ ECL Western Blotting Substrate (Cat #32106, Thermo Scientific, Waltham, MA, USA) and a Syngene Imaging System (RRID: SCR_015770).

HT-29 CRC cells = test: Western blot analysis of HT-29 CRC cells; type: cell-based, human; conditions: 250 ng/mL IFN-γ
Protocol: as §1, §2

B1: IFN-γ: Recombinant Human IFN-γ (Peprotech) used to treat tumor cells for western blot (protein, UniProt P01579 24-161, looked up)
Interferon gamma: QDPYVKEAENLKKYFNAGHSDVADNGTLFLGILKNWKEESDRKIMQSQIVSFYFKLFKNFKDDQSIQKSVETIKEDMNVKFFNSNKKKRDDFEKLTNYSVTDLNVQRKAIHELIQVMAELSPAAKTGKRKRSQMLFRG
- gasdermin B expression (HCT-116 CRC cells): increase in gasdermin B expression
- gasdermin B expression (HT-29 CRC cells): increase in gasdermin B expression
